Biological target: the molecule itself
Experiment: non-reducing SDS-PAGE; purified recombinant protein eluted from the nickel resin, Coomassie stained gel with and without 2-mercaptoethanol; dimer size band under non-reducing conditions

B1: recombinant SURFIN4.2 extracellular domain (position 1-746), N-terminal 6x histidine-tagged (domain or fragment)
chain: MLFVVELDSRLEKSADKRISVERFRKIFEIYVEDKLEELKRSGSEKYDKDCRDFNYFIDDVKDVFINNDLVKIPVKVRKSIWETHVDKNLPKLMKNTTSCKCIRKEHNYNKEYRDMTRTLEDFCEEKTRKLEIIYQKDYDESLYVNFNEWINKKKEDILKEYEKLSNKDKYKHLLKISETCDLNHVDKLFLNISSEDMKKMKEDVKKQHLEVKVRPPVNEPIDDRGKEDALSRGGKSIILNKEENSPTEEITTEYNPVSEMGVGTTIAHSEPGPKTVNTEVRNVLRSDGKISDQGSQKSPPKELSNKQMTPAQRKNVPHFVERRGYGNSHVRGNALKKISNGDDNYKSPSSNYIEVDCAEDKYFLLEDGTNQSENSCKTKYNYFVSNDYDGTGSAIYSTDQVPSREEIKSPDSLSTLDARGSTHNLNVSNEGNPLEGGEEKNNVKISEQNGRNLESSVGTDKGSDKNEEEVAATCDPNDRNCFDGRYINVDYIRGLLKGKRSGSDGRSNIKHIISNNFDDSNMIFPTFNFDFDILKAEEEVLPVNNSDIIYGHEEVEETTQEGASIFEKHSHTSSQQNDSSASGNKYRMLSTTMELPNQQEVFGLYSPVSRTLDSAMSFLRSIISLSSAPVSRSEGQSKESKRVEISTTVQDPIGYRTSPLQMNAHSVGAGINVSSILSMLGLSSGQVRRSGGQGSETYIVGTSQSGFHKNEVIPSIKDKSGKTQIVSNEKGGIFSKGITSMMSSL
- stoichiometry N: 2
